From patent publication US20220213227A1 (published 2022)
Changes are numbered by the printed parent chain.

How the values were obtained:
human CD38 on cells = human CD38 on cells (human, UniProt P28907 1-300); assay: cell-based or functional assay
[1] = target: T1, soluble extracellular region of human CD38 fused to a 6-His-tag (human, UniProt P28907 43-300); assay: SPR, antibody captured on protein G chip, CD38-His injected
T1 construct: Extracellular region = UniProt P28907 residues 43-300, with a 6-His-tag at the C-terminal end; also called human CD38 protein; human CD38 antigen

human CD20 on cells = target: T2, human CD20 on cells (human, UniProt P11836 1-297); assay: cell-based or functional assay
T2 sequence (looked up): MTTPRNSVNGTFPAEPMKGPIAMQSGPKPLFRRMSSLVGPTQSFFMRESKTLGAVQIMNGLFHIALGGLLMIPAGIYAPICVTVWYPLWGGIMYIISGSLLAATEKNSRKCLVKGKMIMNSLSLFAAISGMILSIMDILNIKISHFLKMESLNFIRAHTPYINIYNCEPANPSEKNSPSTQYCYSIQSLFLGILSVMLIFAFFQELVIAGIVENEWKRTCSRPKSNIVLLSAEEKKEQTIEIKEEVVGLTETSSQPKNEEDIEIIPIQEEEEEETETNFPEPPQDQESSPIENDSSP

B1: BEAT CD38-HB7bestfit/CD3 antibody (bispecific antibody, human IgG1, kappa, L234A L235A)
heavy: QVQLQESGPGLVKPSETLSLTCTVSGFSLISYGVHWVRQPPGKGLEWLGVIWRGGSTDYNAAFMSRLTISKDNSKNQVSLKLSSVTAADTAVYFCAKTLITTGYAMDYWGQGTLVTVSSASTKGPSVFPLAPSSKSTSGGTAALGCLVKDYFPEPVTVSWNSGALTSGVHTFPAVLQSSGLYSLSSVVTVPSSSLGTQTYICNVNHKPSNTKVDKKVEPKSCDKTHTCPPCPAPEAAGGPSVFLFPPKPKDTLMISRTPEVTCVVVDVSHEDPEVKFNWYVDGVEVHNAKTKPREEQYNSTYRVVSVLTVLHQDWLNGKEYKCKVSNKALPAPIEKTISKAKGQPREPAVYTLPPSRDELTKNQVKLVCLVTGFYPSDIAVEWESNGQPENNYYTTPPVLDSDGSFSLVSWLNVDKSRWQQGNVFSCSVMHEALHNHYTQKSLSLSPGK
light: DIQLTQSPSSLSASVGDRVTITCRASEDIYNRLAWYQQKPGKAPKLLISGATSLETGVPSRFSGSGSGKDYTLTISSLQPEDFATYYCQQYWSTPTFGQGTKLEIKRTVAAPSVFIFPPSDEQLKSGTASVVCLLNNFYPREAKVQWKVDNALQSGNSQESVTEQDSKDSTYSLSSTLTLSKADYEKHKVYACEVTHQGLSSPVTKSFNRGEC
chain: EVQLVESGGGLVQPGGSLRLSCAASGYTFTRYTMHWVRQAPGKGLEWIGYINPSRGYTYYADSVKGRFTLSTDKSKNTAYLQMSSLRAEDTAVYYCARYYDDHYCLDYWGQGTLVTVSSGGGGSGGGGSGGGGSGGGASDIQLTQSPSSLSASVGDRVTITCRASSSVSYVAWYQQKPGKAPKRWIYDTSKLYSGVPSRFSGSGSGTDYTLTISSLQPEDFATYYCQQWSSNPPTFGQGTKVEIKGGGGTDKTHTCPPCPAPEAAGGPSVFLFPPKPKDTLMISRTPEVTCVVVDVSHEDPEVQFKWYVDGVEVHNAKTKPREEQYNSTFRVVSVLTVLHQDWLNGKEYKCKVSNKALPAPIEKTISKTKGQPREPEVATFPPSREEMTKNQVTLVCLVTGFYPSDIAVEWESSGQPENNYNTDPPLLESDGSFALSSRLRVDKSRWQQGNIFSCSVMHEALHNRFTQKSLSLSPGK
Q: How did the “EC50 of T cell redirected killing of RPMI 8226 myeloma cells (RDL-FACS)” value (human CD38 on cells) turn out when B1 was run?
A: 0.0022 nM

Q: And the Kd [1]?
A: 3.2 nM

B2: BEAT CD20/CD3 (SP34) antibody (bispecific antibody)
heavy: QVQLQQPGAELVKPGASVKMSCKASGYTFTSYNMHWVKQTPGRGLEWIGAIYPGNGDTSYNQKFKGKATLTADKSSSTAYMQLSSLTSEDSAVYYCARSTYYGGDWYFNVWGAGTTVTVSAASTKGPSVFPLAPSSKSTSGGTAALGCLVKDYFPEPVTVSWNSGALTSGVHTFPAVLQSSGLYSLSSVVTVPSSSLGTQTYICNVNHKPSNTKVDKKVEPKSCDKTHTCPPCPAPEAAGGPSVFLFPPKPKDTLMISRTPEVTCVVVDVSHEDPEVQFKWYVDGVEVHNAKTKPREEQYNSTFRVVSVLTVLHQDWLNGKEYKCKVSNKALPAPIEKTISKTKGQPREPAVYTLPPSREEMTKNQVKLVCLVTGFYPSDIAVEWESSGQPENNYYTTPPMLDSDGSFSLVSWLNVDKSRWQQGNIFSCSVMHEALHNRFTQKSLSLSPGK
light: QIVLSQSPAILSASPGEKVTMETTCRASSSVSYIHWFQQKPGSSPKPWIYATSNLASGVPVRFSGSGSGTSYSLTISRVEAEDAATYYCQQWTSNPPTFGGGTKLEIKRTVAAPSVFIFPPSDEQLKSGTASVVCLLNNFYPREAKVQWKVDNALQSGNSQESVTEQDSKDSTYSLSSTLTLSKADYEKHKVYACEVTHQGLSSPVTKSFNRGEC
chain: not shown
Q: How did the “EC50 of T cell redirected killing of Daudi cells (RDL-FACS)” value (human CD20 on cells) turn out when B2 was run?
A: 0.025 nM

B3: CD3/CD20 BEAT (SP34 scFv H5/L65 with Rituximab FAB arm) (bispecific antibody)
VH: EVQLVESGGGLVQPGGSLRLSCAASGYTFTSYNMSWVRQAPGKGLEWVSAIYPGNGDTYYADSVKGRFTISRDNSKNTLYLQMNSLRAEDTAVYYCARSTYYGGDWYFNVWGQGTLVTVSS
VL: B3 VH with V48I, S49G, F68A, I70L, R72A, N74K, L79A
chain: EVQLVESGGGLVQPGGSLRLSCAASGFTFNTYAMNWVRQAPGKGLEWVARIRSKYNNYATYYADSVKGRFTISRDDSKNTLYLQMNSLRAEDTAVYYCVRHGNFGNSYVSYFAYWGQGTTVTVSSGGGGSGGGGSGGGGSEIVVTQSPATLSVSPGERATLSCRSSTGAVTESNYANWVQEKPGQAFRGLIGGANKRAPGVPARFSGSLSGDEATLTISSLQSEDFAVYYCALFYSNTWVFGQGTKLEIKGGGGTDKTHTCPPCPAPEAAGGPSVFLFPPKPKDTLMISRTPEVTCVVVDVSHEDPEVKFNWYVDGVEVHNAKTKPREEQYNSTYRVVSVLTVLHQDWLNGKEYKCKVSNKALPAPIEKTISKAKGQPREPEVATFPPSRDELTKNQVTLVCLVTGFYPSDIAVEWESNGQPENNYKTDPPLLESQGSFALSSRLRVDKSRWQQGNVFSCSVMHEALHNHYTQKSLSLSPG
Q: With B3 as the binder, how does the “EC50 of T cell redirected killing of Raji cells (RDL-FACS)” value (human CD20 on cells) read?
A: 0.0376 nM
